The results in this text go back to the supplement of paper PMC9112550, “Optimization of the antimicrobial peptide Bac7 by deep mutational scanning” (BMC Biology, 2022).

This data set has as its system Escherichia coli TOP10. Nature of the data set: shrunken log2 fold change of peptide-encoding DNA abundance (4.5 h post-induction vs induction); higher = less antimicrobial activity (less host growth inhibition). The settings on record: time post-induction: 4.5 h; library: site-saturation at positions 5, 18, 19, 20.
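Note: peptides expressed intracellularly from a pBAD plasmid library in pooled LB shake-flask culture, induced with 0.3% L-arabinose, DNA abundance read by NGS, three biological replicates, DESeq2 with apeglm shrinkage.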

Turning to RRIRHRPPRLPRPRPRPGIYPRP, the “shrunken log2 fold change” value turned out to be 0.0151. As to RRIRFRPPRLPRPRPRPNEHPRP, the “shrunken log2 fold change” value was -0.525. RRIRRRPPRLPRPRPRPCKLPRP: the “shrunken log2 fold change” value was found to be 0.00583.

As for RRIRLRPPRLPRPRPRPREDPRP, the “shrunken log2 fold change” value came to 0.327. Regarding RRIRFRPPRLPRPRPRPMRLPRP, the “shrunken log2 fold change” value was 0.947.

Regarding RRIRCRPPRLPRPRPRPFHAPRP, the “shrunken log2 fold change” value was -0.44.

With RRIRERPPRLPRPRPRPLVVPRP, the “shrunken log2 fold change” value stood at 0.0509. RRIRERPPRLPRPRPRPRIGPRP: the “shrunken log2 fold change” value was -0.0649. Regarding RRIRWRPPRLPRPRPRPDWEPRP, the “shrunken log2 fold change” value is 0.229. For RRIRKRPPRLPRPRPRPAANPRP the value was 0.647; for RRIRPRPPRLPRPRPRPWEMPRP, -0.157. Regarding RRIRDRPPRLPRPRPRPPNFPRP, the “shrunken log2 fold change” value amounted to 0.0198. As for RRIRCRPPRLPRPRPRPQQHPRP, the “shrunken log2 fold change” value is -0.113. Consider RRIRYRPPRLPRPRPRPWNKPRP, for which the “shrunken log2 fold change” value was -0.00965.

Turning to RRIRVRPPRLPRPRPRPAPVPRP, the “shrunken log2 fold change” value is 0.349. For RRIRCRPPRLPRPRPRPDMFPRP the value was -0.148.

In the case of RRIRTRPPRLPRPRPRPWITPRP, the “shrunken log2 fold change” value is 0.0633. Regarding RRIRNRPPRLPRPRPRPFKWPRP, the “shrunken log2 fold change” value is -0.224. With RRIRIRPPRLPRPRPRPFHGPRP, the “shrunken log2 fold change” value is -0.146. RRIRSRPPRLPRPRPRPSRHPRP: the “shrunken log2 fold change” value was determined as 0.0757. As for RRIRSRPPRLPRPRPRPWRNPRP, the “shrunken log2 fold change” value is -0.0428. Take RRIRCRPPRLPRPRPRPHHVPRP: the “shrunken log2 fold change” value came to 0.0159. As for RRIRIRPPRLPRPRPRPAMFPRP, the “shrunken log2 fold change” value was -0.45. On to RRIRSRPPRLPRPRPRPITAPRP, for which the “shrunken log2 fold change” value was -0.0161. Take RRIRDRPPRLPRPRPRPRCWPRP: the “shrunken log2 fold change” value stood at 0.923.

As to RRIRHRPPRLPRPRPRPQAMPRP, the “shrunken log2 fold change” value is -0.00822. With RRIRPRPPRLPRPRPRPIGYPRP, the “shrunken log2 fold change” value is -0.0758.

Consider RRIRRRPPRLPRPRPRPARQPRP, for which the “shrunken log2 fold change” value is -0.0115. Regarding RRIRHRPPRLPRPRPRPQIPPRP, the “shrunken log2 fold change” value stood at 0.0645. As to RRIRQRPPRLPRPRPRPQCTPRP, the “shrunken log2 fold change” value is -0.0165. As for RRIRWRPPRLPRPRPRPMAAPRP, the “shrunken log2 fold change” value is 0.318. For the sequence RRIRWRPPRLPRPRPRPVADPRP, the “shrunken log2 fold change” value was found to be 1.07. As for RRIRLRPPRLPRPRPRPNHWPRP, the “shrunken log2 fold change” value amounted to 0.0994. RRIRKRPPRLPRPRPRPHLDPRP: the “shrunken log2 fold change” value was determined as 0.00976. On to RRIRDRPPRLPRPRPRPSMEPRP, for which the “shrunken log2 fold change” value is 0.0308. Turning to RRIRWRPPRLPRPRPRPYQHPRP, the “shrunken log2 fold change” value was -0.692. As to RRIRTRPPRLPRPRPRPMPLPRP, the “shrunken log2 fold change” value was -0.104. As to RRIRPRPPRLPRPRPRPYYQPRP, the “shrunken log2 fold change” value was -0.496.

Take RRIRNRPPRLPRPRPRPYAAPRP: the “shrunken log2 fold change” value was -0.4. In the case of RRIRCRPPRLPRPRPRPSETPRP, the “shrunken log2 fold change” value was 0.108. On to RRIRQRPPRLPRPRPRPTQVPRP, for which the “shrunken log2 fold change” value is -0.0311. As to RRIRWRPPRLPRPRPRPCLSPRP, the “shrunken log2 fold change” value is -0.15. As to RRIRNRPPRLPRPRPRPQWYPRP, the “shrunken log2 fold change” value was -0.209. In the case of RRIRMRPPRLPRPRPRPYMVPRP, the “shrunken log2 fold change” value was -0.0313.

With RRIRIRPPRLPRPRPRPPMTPRP, the “shrunken log2 fold change” value was -0.0813. As for RRIRARPPRLPRPRPRPAFAPRP, the “shrunken log2 fold change” value stood at 0.685.

With RRIRTRPPRLPRPRPRPIQFPRP, the “shrunken log2 fold change” value was -0.0251. Take RRIRKRPPRLPRPRPRPLKWPRP: the “shrunken log2 fold change” value stood at 0.18. RRIRCRPPRLPRPRPRPFFMPRP: the “shrunken log2 fold change” value was -0.201. Consider RRIRERPPRLPRPRPRPWRSPRP, for which the “shrunken log2 fold change” value is 0.196.

Regarding RRIRVRPPRLPRPRPRPVYGPRP, the “shrunken log2 fold change” value is -0.167. For RRIRYRPPRLPRPRPRPLGKPRP, the “shrunken log2 fold change” value was -0.192.

For RRIRVRPPRLPRPRPRPPQKPRP, the “shrunken log2 fold change” value was 0.23.

As to RRIRHRPPRLPRPRPRPRKFPRP, the “shrunken log2 fold change” value amounted to 0.15. Take RRIRFRPPRLPRPRPRPEMEPRP: the “shrunken log2 fold change” value was determined as 0.252. The same measure for RRIRLRPPRLPRPRPRPPCHPRP: -0.178; for RRIRLRPPRLPRPRPRPTWTPRP: -0.0607.

In the case of RRIRCRPPRLPRPRPRPLDYPRP, the “shrunken log2 fold change” value was -0.75. For RRIRHRPPRLPRPRPRPKFDPRP, the “shrunken log2 fold change” value is -0.336. As to RRIRMRPPRLPRPRPRPWDTPRP, the “shrunken log2 fold change” value was -0.0606. Regarding RRIRFRPPRLPRPRPRPTRHPRP, the “shrunken log2 fold change” value came to 0.519. As to RRIRMRPPRLPRPRPRPAHMPRP, the “shrunken log2 fold change” value was 0.281. For the sequence RRIRARPPRLPRPRPRPKTLPRP, the “shrunken log2 fold change” value came out at 0.343. RRIRCRPPRLPRPRPRPRAGPRP: the “shrunken log2 fold change” value amounted to 0.472. For the sequence RRIRVRPPRLPRPRPRPGQGPRP, the “shrunken log2 fold change” value turned out to be 0.065. The same measure for RRIRPRPPRLPRPRPRPRQSPRP: 0.0298; for RRIRIRPPRLPRPRPRPEYMPRP: -1.14; for RRIRCRPPRLPRPRPRPFKEPRP: -0.342. Regarding RRIRIRPPRLPRPRPRPCWEPRP, the “shrunken log2 fold change” value is -0.0815.

Consider RRIRNRPPRLPRPRPRPIMKPRP, for which the “shrunken log2 fold change” value was -0.059. The same measure for RRIRFRPPRLPRPRPRPFCYPRP: -0.372; for RRIRYRPPRLPRPRPRPHPVPRP: -0.185. Turning to RRIRDRPPRLPRPRPRPYCRPRP, the “shrunken log2 fold change” value was found to be 0.0533. For the sequence RRIRTRPPRLPRPRPRPSCGPRP, the “shrunken log2 fold change” value was -0.0561.

As for RRIRKRPPRLPRPRPRPMPWPRP, the “shrunken log2 fold change” value is 0.321. RRIRNRPPRLPRPRPRPPPLPRP: the “shrunken log2 fold change” value came out at 0.732. Take RRIRYRPPRLPRPRPRPSVDPRP: the “shrunken log2 fold change” value was -0.61.

RRIRDRPPRLPRPRPRPFDQPRP: the “shrunken log2 fold change” value was -0.115. For the sequence RRIRFRPPRLPRPRPRPASAPRP, the “shrunken log2 fold change” value worked out at 0.47. As for RRIRHRPPRLPRPRPRPHFRPRP, the “shrunken log2 fold change” value came out at 0.00253.

As to RRIRARPPRLPRPRPRPRFRPRP, the “shrunken log2 fold change” value was 0.459.

As for RRIRWRPPRLPRPRPRPKSFPRP, the “shrunken log2 fold change” value was determined as 0.0955.

Turning to RRIRFRPPRLPRPRPRPDVKPRP, the “shrunken log2 fold change” value is -0.0558.

In the case of RRIRWRPPRLPRPRPRPLYWPRP, the “shrunken log2 fold change” value is -0.34. As for RRIRIRPPRLPRPRPRPKGHPRP, the “shrunken log2 fold change” value amounted to 0.0764. Take RRIRKRPPRLPRPRPRPLFCPRP: the “shrunken log2 fold change” value turned out to be 0.177. The same measure for RRIRHRPPRLPRPRPRPERYPRP: -0.0389; for RRIRFRPPRLPRPRPRPTMQPRP: 0.219; for RRIRARPPRLPRPRPRPPPPPRP: 1.46. Turning to RRIRQRPPRLPRPRPRPLTWPRP, the “shrunken log2 fold change” value was -0.21. With RRIRVRPPRLPRPRPRPQVAPRP, the “shrunken log2 fold change” value was -0.136. As to RRIRFRPPRLPRPRPRPGPYPRP, the “shrunken log2 fold change” value was -0.0125. For RRIRWRPPRLPRPRPRPHEWPRP the value was 0.0987. With RRIRNRPPRLPRPRPRPWWCPRP, the “shrunken log2 fold change” value is -0.111.

Regarding RRIRSRPPRLPRPRPRPTINPRP, the “shrunken log2 fold change” value is -0.229. RRIRIRPPRLPRPRPRPEPEPRP: the “shrunken log2 fold change” value was 0.421. With RRIRIRPPRLPRPRPRPNGCPRP, the “shrunken log2 fold change” value was -0.0792. As for RRIRMRPPRLPRPRPRPWHPPRP, the “shrunken log2 fold change” value was -0.297.

For the sequence RRIRRRPPRLPRPRPRPMQFPRP, the “shrunken log2 fold change” value was -0.058. The same measure for RRIRLRPPRLPRPRPRPPYNPRP: -0.689; for RRIRQRPPRLPRPRPRPGRRPRP: 0.388.

As for RRIRKRPPRLPRPRPRPPRPPRP, the “shrunken log2 fold change” value came to 1.34.

Take RRIRMRPPRLPRPRPRPCQQPRP: the “shrunken log2 fold change” value turned out to be 0.0325. In the case of RRIRLRPPRLPRPRPRPESSPRP, the “shrunken log2 fold change” value was -0.015.

On to RRIRGRPPRLPRPRPRPFCQPRP, for which the “shrunken log2 fold change” value came out at 0.0716. Regarding RRIRQRPPRLPRPRPRPIQSPRP, the “shrunken log2 fold change” value came to 0.0147.

As to RRIRLRPPRLPRPRPRPYTVPRP, the “shrunken log2 fold change” value is -0.121. In the case of RRIRCRPPRLPRPRPRPNKVPRP, the “shrunken log2 fold change” value was -0.142. As to RRIRQRPPRLPRPRPRPIVTPRP, the “shrunken log2 fold change” value is -0.364. In the case of RRIRKRPPRLPRPRPRPKYQPRP, the “shrunken log2 fold change” value was determined as 0.0989. As for RRIRSRPPRLPRPRPRPMGAPRP, the “shrunken log2 fold change” value turned out to be 0.188. Turning to RRIRERPPRLPRPRPRPSMTPRP, the “shrunken log2 fold change” value worked out at 0.0627. As to RRIRDRPPRLPRPRPRPQNLPRP, the “shrunken log2 fold change” value was found to be 0.0232.

Take RRIRTRPPRLPRPRPRPSIQPRP: the “shrunken log2 fold change” value was -0.865. Take RRIRCRPPRLPRPRPRPESEPRP: the “shrunken log2 fold change” value was 0.237.

For the sequence RRIRSRPPRLPRPRPRPKQFPRP, the “shrunken log2 fold change” value amounted to 0.26. For the sequence RRIRVRPPRLPRPRPRPATQPRP, the “shrunken log2 fold change” value was -0.0949. As for RRIRTRPPRLPRPRPRPDNPPRP, the “shrunken log2 fold change” value was -0.371. The same measure for RRIRFRPPRLPRPRPRPYQAPRP: -0.303; for RRIRGRPPRLPRPRPRPSDVPRP: 0.0304; for RRIRWRPPRLPRPRPRPMEMPRP: 0.0108.

Turning to RRIRVRPPRLPRPRPRPVRAPRP, the “shrunken log2 fold change” value came to 0.616.

Turning to RRIRWRPPRLPRPRPRPWLDPRP, the “shrunken log2 fold change” value is -0.231.

Consider RRIRHRPPRLPRPRPRPWLFPRP, for which the “shrunken log2 fold change” value was -0.0716. Regarding RRIRMRPPRLPRPRPRPTWKPRP, the “shrunken log2 fold change” value was -0.0427.
